Assay: soluble on expression in E. coli; label from the status in PepcDB or PDB records
In the case of “MDISMKQSKRNLWWSVCAGLLFCSWGCSSQVSDKPVTLETLLDEMVSVEEQALYPVPSYTCRQESSYDRASVSPDSAGWFANSDGFGIKRVDTVAGRIEKVMFDEVGPGAITRIWITTIDKRGTWRFYFDGSDQPGWIIPAYDLMRINVPGLGKGMLQAHTSYTPEGKGGNTLFLPIPYARGCKVTFEDEPGVNPTPKYYHINFRKYPEGTQVETFSKEVVERAAQKIAEVDNRLLQPVAGRKGEILREEKSILPSDSLVIPLPAGENAVYEVKFNIRIDNPEQYAQLMRELVFSAGFDGKQTVWVPLSDFSGGGMGAPKVDSWYLTSDGKGNISSRWLMPYQKDGVLKVLNLSSRSVAATMEVNVAPLKWNKDRSLYFYASWRQENGIYIHDKPEEADQCVEWNFATLKGRGVYKGDLLSLYNHAPLWYGEGDEKIWVDDDTFPSHFGTGTEDYYNSSWAPVVPFYTPFGGAPRADLESSHGYNAFYRTRHLDGIPFNKSFKFDIEMLGWKRGEADYATTIYWYGDPEAQVFGTSGIEEARRQLLPAVEASADLEHHHHHH”, the “soluble on expression in E. coli” value is reported as “soluble”.
For “MDISSTEIWDAIRRNSFLLYYQPKVDAKTNELIGFEGLIRLKTATAILAPADFFEDIALLNATREMQDFVAETAIEQINQLGGRFSISINIPAHYVVSSNYMTFLYDYVKEHLKYPECLEIEIIERGEITELAVADKNLRKIKKLGVTVSMDDFGKGYSSLAYLRSLPIDIVKTDMSFIALLKTDRKQQIIIQAIVNLCHDLGGKVVTEGVEDIEQVKTLREMKVDYFQGYYFSRPLPMKEIKEKYSIV”, the “soluble on expression in E. coli” value was “not soluble”.
For “MDIVTLKDFYASVLGKRVQETLCGQLNLCWPDLTGKRVMGFGYALPYLSALRMRAQQCLAFMPAGQGALPWPCADKVATALVFEEDLPLPDASIDCILLIHALEYTENSFETLNEIWRVLVPNGQLIVIVPNRSGLWARNACTPFGYGEPYSRQQIVRLFEKTHFVSGSIQEVVHYMPSSGSVSRFFSFFYEPVARHLLPYFGGLLICQAQKRVYQGLEHHHHHH”, the “soluble on expression in E. coli” value was “not soluble”.
In the case of “MDKEETKTKPRLLRYEEKKYEDVKPLETQPAEIAEKETLEYKTVRTFSESLKSEKTEDYLRESIIQQHMVSPEPASLKEKGKSRRKKDQTHACPNVRKARPVSYDRTEPKDDDVIRNIIRLREKLGWQTILPQHSLKYGSSKIAIQKITLKKPLEDDGEFVYCLPRKSPKSLYNPYDLQVINIVGSVKE”, the “soluble on expression in E. coli” value is reported as “soluble”.
With “MDKFKYAFDNKRYHTWNYYLRNTFGEKVFKVSINAGFTCPNIDGSLGYGGCTYCSKEGSGDFAGNPKDNLISQFYNIKEMMLKKWPHAKYIGYFQAYTNTYAPLEVLKEKYETILELEDVIGLSISTRPDCLPDDIVEYLSELNKRTNLWVELGLQTIHDSTSKIINRGHDYKTFVEGVEKLKSKNIKVVVHIINGLPGEDYNMMMETAKAVGKMGVDGIKIHLLHVIKDTPMEKMLQNGMLTLMEQDEYINLVCDQLEILPETMIIHRLTGDGKRDELVGPIWSLKKWEILNKIDDTLKARNSYQGCKFV” the “soluble on expression in E. coli” value was “soluble”.
With “MDKYRLLLLGGGRGLFDIDEDFMHWIDEFIEEHSNSIEITIVTGKNKKLYDNLTHKKPLKNIKVLGFVNDMYNLIRECDLMLTKPGGATIFEAIQSQTPVLVKMPKVGQEIENAKFIIDKGLGMIYSDDLDLKNIFYKLVSNEFDSIINFMKKNLKEFKTVIHPEKIADYISELIDNHLEHHHHHH” the “soluble on expression in E. coli” value was “not soluble”.
For “MDLDLIQDLPILNFPPAIKIRANTNRDDDGGGCTTPTSSDHKIPPTTATTPPPPPQKPRPPSTPSSLGIRSCKRKLMTSLSKYEIIVNKDEIERFFSSVYNQTMASSTTTAITVAKRRRSFRSCSRR”, the “soluble on expression in E. coli” value was “not soluble”.
In the case of “MDLEAPPTLLQLAAQCTVRKEVLTISVLQNLPMKLFPPLFKEADILRKAKMIKLLVEYWPYPSLLVGLLIDKTNLETFQAILEGVGTWLKRKYRPRMGKLQVVDLRNGHHDFWDMLAGREGGDQLVETMPEKQEVEGHSRRQRLRVFSDLSFKSSRHEDKQQTHLLQWAKDREGFLHLCCEKLEIGALGVSKVKKVLKLLQPEFIKELELNTVGNLSKLTKLVPCISKMRNLQKLMLVRIFGRHTYTPLEERNVTKILSLFPKLSYLQHLTIDDVYFLRDHMNELFRYLEAPLLSLTITLCQISQSDLESFSQHWNYGQLKHLCLKGVSLSTLNVTPLKFFLESVADTLQTLELEDCRMKDSHLRILLPALTKCTRLTSINFYDNNISRDVLQDLLHRTANMSQLTMELYPAPVEVYNEWSYVQVERFSQLCAELMNTLITVRRPKSVCFGTYSCYDCDTHCIYGNQTTFCECLE”, the “soluble on expression in E. coli” value is reported as “not soluble”.
With “MDLHLKNLFGRFQEQFGSGPGLGPGSGVCLMIVEGISSNIIQSIFRASASLYSSEPWKRLRPGHLFGVRVGKDSDWSGKRQPFQCVQFIGGDGGDIAIYMYRSMSYALKMTDGDSWEMARDPNVEVFRVTYELESLMLPSNKRMVKSLSLEVSGTDRFPIMDVARCMTSGELQFRSPTLEELRLVFAVMKALSLVHPLLLQEEKQVRGLPRMIKFSPFIETVDVQWPSEMGKGHDFVAVTVSHPPGQSYEQKREDDELEIVSGMTA” the “soluble on expression in E. coli” value was “soluble”.
For “MDLHLTVDLKKTKTLIDLADQAHLIIEQTTKLPKKEAAILFLLIDNQLVALGLAEEKATYKEVSFDHSILLKPTWDTELAYLAQAFLDDAKESGLTLEATPTTVKIPKSAVATVTNYKETVTFILERFGYSLFKKPAPKKARPAKARHKWTKEVSQIPFYIDTRQSKATVFWQKRNEMLIKAGATMMPEAPLNKDGSVGFSARFGEKLRDERKGQFKDFVTTEDIVLKSVNEVGLFLYFAGTNSWLELVDENGKTLNEWTVVE”, the “soluble on expression in E. coli” value was “not soluble”.
In the case of “MDLPDPYLPGAISLFEQLDKKLLVVLRDGRKLIGFLRSIDQFANLILEDVVERTFVEKYFCETGQGFMLIRGENVELAGEIDDTIETGLTQVSPEEFRRLEDEYIAKNPPKFLKRQAEKTEEHDA”, the “soluble on expression in E. coli” value is reported as “not soluble”.
For “MDLSTSGSLPCHLPLSLLTNLQTPPIDTSFSSPPATSSSSLLSPSPSSAFRPVVPKSLMNPQPAMDTFYMSAIQSLVVSTTNDDQYSEHGALEGSKSLAKDENASTSAGTILCQVCSDKASGFHYGVFACEGCKGFFRRSIQQKITYRACTRAEDCLILRNNRNRCQCCRLKKCLAVGMSRDAVRFGRVPKREKARMFEEMQKTNVQSQRDQIAIQYENLTEVMHKINQAFGTLQATLEKCTGPIYTDRCPITSNFIVIPLKAAIDFANSIPAFLSITQTQRVHLLQNSVFDVMLLASASASTSQHFPPGGLTYDQSSANPIIPQAIQSISARIRQLPPQTVPILTAIAVCQADLLPESQQPMLLAERLWCVLGKLGGIQSLATAPSLLADVRTLRQWHSDRLRQMSQISQHFSQNLLIAPVAAAAPVLLPPAFLSPPASATSTSSSSVKSEFIERHPSIASLLERPRRISSSGAQEPLNLSLPHVRHQVKRDVDSDEQLEEMKVSPVPTTLSE”, the “soluble on expression in E. coli” value was “not soluble”.
With “MDMNVEIFAGIVNNPLTKKALRNLSGSCKTCGDKRIKIAIDYALGYRSDACWKCRAAAKVVKKVIEAGGRAFNVDMNEIREKFRDAYWRKGLASVIKGIAHFGVRKPFVPGAPFQVVWDITYSCNLRCKHCYATAGKPLQDELTTDEALETIDKLDRLGVTIIAFSGGEPLVRRDIFELTRYAAEKGIYVAIATNGTLITEEIAKRMKENGVGYVQISLDGMKETHEAFRGIRGCFDKTVEGIRNAVKTGLFVNVSMTVTRYNYHEVPKVVELCEKLGVNWFMHYNFIPTGRGREIVEADITPEQREELLKWLYEKNYSSNISLLSTAPQFARVALQCQGEIVPTHFYNVNAGERLKELAEFIGGCGAGRFYFAIKANGDIQPCVFFPLKVGNVREDDLEELWLHNHVFEDLRDKDILEGCGSCGYRYVCGGCRARAYNYFGDYTKPDPGCVNNRRWWERISKIEVRA” the “soluble on expression in E. coli” value was “not soluble”.
For “MDNAHTPPFAGLTPDAILDAVESLGLRASGSLLALNSYENRVYQVGLDDAAPLVAKFYRPARWSDAAILEEHAFSLQLAEREIPAVPPLAFGGRTLHGHGGFRFALFERRGGRVPELDRDETLQWVGRFLGRIHALGRTEGYRHRPTLDMQSFGREPVDFVLGGGWLPPELEAVYRGVAEQALQGVARCFERAGPVAQLRLHGDCHVGNLLWTDAGPHFVDFDDSRMGPAVQDLWMLLSGERAEQSRQLGEVLAGYEDFCEFDLRELNLLEALRTLRLLHYSAWLARRWHDPAFPAAFPWFGAPRYWEEQILALREQIALMDEPPLWSCLEHHHHHH”, the “soluble on expression in E. coli” value was “not soluble”.
For “MDNKNFQSKTGFNLENTYLTLPNIFFSEQNPKGSKNPKLIKFNTSLAEELGLNEEVLNSDFGLNIFAGNETFPGIVPIAQAYAGHQFGHFTMLGDGRALLLGEHVTKDCKRYDVQLKGSGRTIYSRGGDGKAALAPMLREYIISEGMHGLGIPTTRSLAVVSTGEEVLRERFEQGAILTRIASSHIRVGTFAYAAQWGTLEDLKSLADYTIKRHFPNIADNENKYILFLEEVINRQAELIVKWQSVGFIHGVMNTDNMVISGETIDYGPCAFMDTYDTNTVFSSIDYAGRYAYGNQPNMALWNLARFSEALLPLLNPNLDEAVNIAKKSISNFSKLYKKYWFNKMRTKLGLFTEKENDELLIEGLLSTMQKYEADFTNTFVSLTLNKFEDEKVFSSDEFKTWYALWQNRLKEENRPQEEVRNLMMNNNPYIIPRNHLVEEALKNAEKGDFTFMDNLLEALKNPYSYSKDLEKYTKLPEKSDTPYVTYCGTLEHHHHHH”, the “soluble on expression in E. coli” value was “not soluble”.
With “MDNMKRNMPYLPSFKLTDFDIKTLVQPILCPRSQEIQYYETLSKISTFAQSNINNDVFFSIIDNTFIQTLALQQIRFSLEKYPHQLHSFNIKLSCLADEDFVRELLSFHGAKFALEISELDCYTESKEIRENLSVLQANNIEIWLDDYHRNNKLANMSLGNILWDRIKIDKSFLKHADQESIQALEYFLAPFCLHGLIFEGAEYIEHHKMLKTSQSLTQGYYYFRPSPINSLDSKPRVAESIKLSYAG” the “soluble on expression in E. coli” value was “not soluble”.
With “MDNNIDFIVTWVNGGDPDWLKKKNKYLPVNESNENMNSESRYRDFDIFKFWFRAVEKFAPWVHKIYLITDNQVPDWLDTRNSKLTVIDHRDIMDADWLPTFNSNAIELNAYKIKNLSEKFVLFNDDTILNSYVDKVDFFDENYPKDIYVESPIMATKGSVDHIMVNNVEIINEFFEKKNFYKKNLTKVFNPKIGIKLLRTLALLPSSKFAGFWNSHLPISYNKTTFETVWSNCEGKLVATSKNKFRTAYDVSHWLMRYWQLASGNYHLQNNIGKVYDLSSQNIDEVVTQLQRSHSKIICLNDNDELDDYEGVKGKLVTTLNEKFSEKSKFELLEHHHHHH” the “soluble on expression in E. coli” value was “soluble”.
With “MDPELQCIRECRLAQLKNNSGGTNGDRNSGANNGGGENSAPVGAAIANFLEPQALERLSRVALVRRDRAQAVETYLKKLIATNNVTHKITEAEIVSILNGIAKQQNSQNNSKIIFEAAALEHHHHHH” the “soluble on expression in E. coli” value was “soluble”.
For “MDPFDEIVIKNYLSFPLVLQKLLSIKKLRRIEFFSQNMATHIVFDELGMTTKGFRPDKEVEKLLLKLELIDKRIERTLFRQKHFERFWATLKPLEQQLLIRRFKYKEEVNCPHRLIESVLDEIEEIETAICLMENIELEENELSDDVEENLERMCDFFAL”, the “soluble on expression in E. coli” value was “not soluble”.
For “MDPNFHNTGPSGSAPRKPETWRSCKEANKVIEMFYSEGNFYHDIYMEELANLAETSHKNVRDTLSRLRKKDERAGKYVPPPPKQMYEFTSEQRGALDQAFLVTPQMDSDGARELSEITGLTVKQINNWFCNQRRKADGRSAEKDKKRRERIREDMKKNGLGRVGTFRSEAVELFEKEYETMLQLEAIGGGKVRIPYTELVEKTGMERKKIRDWFSKRKGRDKRFLENMENTREVSPQNTQQNIQDILIKIVTQKEESALQRHAPEMRDAGQRDGFCLFGFFLRD”, the “soluble on expression in E. coli” value was “not soluble”.

Source: the DeepSol protein solubility set
